Results as given in patent publication US20240199761A1 (AstraZeneca / MedImmune, published 2024).
Read-outs that look alike come from different tables or passages of the source.

Tests used:
huFcRn = molecular target: T1, huFcRn (human, UniProt P55899 24-297; P61769 21-119, limits assumed); experiment: huFcRn affinity chromatography, pH gradient elution
T1 construct: also called human neonatal Fc receptor

recombinant mouse PAD2 [1] = molecular target: T2, recombinant mouse PAD2 (mouse, UniProt Q08642 1-673); experiment: ratio of SPR KDs, mouse PAD2 against human PAD2; biotinylated antibody captured on C1-streptavidin, PAD flowed over
T2 construct: Recombinant and tagged

[2] = molecular target: T3, human PAD2, recombinant, tags at the N-terminus (human, UniProt Q9Y2J8 1-665, enzymatically biotinylated on an Avi-tag where captured on streptavidin); experiment: SPR; biotinylated antibody on C1-streptavidin, PAD2 flowed over
T3 construct: not shown: N-terminal tags incl; Avi-tag

[3] = molecular target: T4, cynomolgus PAD2, recombinant, tags at the N-terminus (cynomolgus, UniProt G7NUR0 1-665, enzymatically biotinylated on an Avi-tag where captured on streptavidin); experiment: as above
T4 construct: also called Cyno PAD2; not shown: N-terminal tags incl; Avi-tag

[4] = molecular target: T5, mouse PAD2, recombinant, tags at the N-terminus (mouse, UniProt Q08642 1-673, enzymatically biotinylated on an Avi-tag where captured on streptavidin); experiment: as above
T5 construct: not shown: N-terminal tags incl; Avi-tag

[5] = molecular target: T3, human PAD2, recombinant, tags at the …; experiment: as above; remark: listed apart in the source
[6] = molecular target: T4, cynomolgus PAD2, recombinant, tags at …; experiment: as above; remark: listed apart in the source
[7] = molecular target: T5, mouse PAD2, recombinant, tags at the …; experiment: as above; remark: listed apart in the source
recombinant mouse PAD2 [8] = molecular target: T2, recombinant mouse PAD2; experiment: ratio of SPR KDs, mouse PAD2 against human PAD2; biotinylated PAD captured on C1-streptavidin, antibody flowed over

B1: Clone 12 (Bis3, FQQ-YTE; Fab anti-PAD2, scFv anti-PAD4) (bispecific antibody, human IgG1, lambda)
heavy: not shown
light: SYVLTQPPSVSVSPGQTASITCSGDKVGDKYVSWYQQKPGQSPVLVIYQDSQRPSGIPERFSGSNSGNTATLTISGTQAMDEADYYCQTWAPDVLLFGSGTKVTVLGQPKAAPSVTLFPPSSEELQANKATLVCLISDFYPGAVTVAWKADSSPVKAGVETTTPSKQSNNKYAASSYLSLTPEQWKSHRSYSCQVTHEGSTVEKTVAPTECS
notes: Bivalent bispecific IgG-HC-scFv; also called PAD240012; Bis3 = scFv (PAD4)-Fab(PAD2)
With B1 as the binder, how does the “HPLC retention” value (huFcRn) read?
Its value is 22.8 min.

What about the Relative retention (huFcRn) of the same binder?
Its Relative retention is 0.746.

And the “fold difference in KD, mouse/human” value (recombinant mouse PAD2 [1])?
The value was 2.1 fold.

B2: Clone 12, Bis3 anti-PAD2 Fab / anti-PAD4 scFv, Fc FQQ-YTE (bispecific antibody, human IgG1, lambda)
heavy: not shown
light: SYVLTQPPSVSVSPGQTASITCSGDKVGDKYVSWYQQKPGQSPVLVIYQDSQRPSGIPERFSGSNSGNTATLTISGTQAMDEADYYCQTWAPDVLLFGSGTKVTVLGQPKAAPSVTLFPPSSEELQANKATLVCLISDFYPGAVTVAWKADSSPVKAGVETTTPSKQSNNKYAASSYLSLTPEQWKSHRSYSCQVTHEGSTVEKTVAPTECS
notes: Bivalent for PAD2 and for PAD4; In the rows marked ^# the antibody was chemically biotinylated; also called PAD240012
Which Kd [2] does the source give for B2 here?
Its Kd is 0.00676 nM.

And the koff [2]?
Its koff is 4.05e-05 s⁻¹.

What about the kon [2] of the same binder?
The kon was 5.6e+06 M⁻¹ s⁻¹.

What about the Kd [3] of the same binder?
Its Kd is 0.0138 nM.

And the koff [3]?
The koff was 5.74e-05 s⁻¹.

And the kon [3]?
The kon was 4.19e+06 M⁻¹ s⁻¹.

And the Kd [4]?
Its Kd is 0.0142 nM.

What about the koff [4] of the same binder?
The koff was 6.89e-05 s⁻¹.

What about the kon [4] of the same binder?
Its kon is 4.85e+06 M⁻¹ s⁻¹.

And the Kd [5]?
The Kd was 0.00676 nM.

And the Kd [6]?
The Kd was 0.0138 nM.

What about the Kd [7] of the same binder?
Its Kd is 0.0142 nM.

B3: Clone 22 (Fab) (141LO0035 hIgG1 pgl-4) (Fab, V domains shown)
VH: not shown
VL: SYVLTQPPSVSVSPGQTASITCSGDKVGDKYVSWYQQKPGQSPVLVIYQDSQRPSGIPERFSGSNSGNTATLTISGTQAMDEADYYCQTWAPDVLLFGSGTKVTVL
notes: Tested as a Fab; Only the variable domains are tied to Clone 22; also called anti-PAD2 Fab
With B3 as the binder, how does the “fold difference in KD, mouse/human” value (recombinant mouse PAD2 [8]) read?
Its value is 10 fold.
